Source: patent US9289500B2, “Saccharide-peptide hydrogels” (The Regents of the University of California, priority 2013, dated 2016)
Bridges are numbered along the chain shown (N, C = ends). Where no end group is shown, it is not given here. The star is where a group is joined. Acm = CC(=O)NC*

What was measured:
IFN-γ = target: T1, IFN-γ (Homo sapiens, UniProt P01579); conditions: cited from earlier work
T1 sequence (P01579 24-161 limits assumed): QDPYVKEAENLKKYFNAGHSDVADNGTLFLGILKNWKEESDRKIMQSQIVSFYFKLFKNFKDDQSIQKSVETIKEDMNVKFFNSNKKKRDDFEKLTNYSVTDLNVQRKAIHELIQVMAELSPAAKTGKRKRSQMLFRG

TNF-α [1] = assay: TNF-α mediated PUMA mRNA up-regulation in islets; format: cell-based; conditions: human islets
From the text: PUMA and INS Pre-mNRA as markers for islet health in response to cytokine insults. Inflammation mediated proinflammatory cytokines, including Tumor necrosis factor (TNF)-α, Interleukin(IL)-1β, Interferon (IFN)-γ, play an important role on β cell death, leading to primary graft nonfunction. […] Elevated PUMA mRNA by TNF-α or the TNF-α+ and IFN-γ combination correlated with decreased islet function, as indicated by decreased preproinsulin (INS) pre-mRNA expression (r=−0.45, p<0.001) assessed by the single islet gene expression assay (RT-PCR). TNF-α receptor blocker, Etanercept, abolished TNF-α mediated PUMA mRNA up-regulation in human islets. PUMA mRNA and INS pre-mRNA expressions are used herein as markers for islet health under cytokine insults.

TNF-α [2] = target: TNF-α (Homo sapiens, UniProt P01375); conditions: cited from earlier work
TNF-α (Homo sapiens, UniProt P01375), sequence (P01375 77-233 limits assumed, species assumed): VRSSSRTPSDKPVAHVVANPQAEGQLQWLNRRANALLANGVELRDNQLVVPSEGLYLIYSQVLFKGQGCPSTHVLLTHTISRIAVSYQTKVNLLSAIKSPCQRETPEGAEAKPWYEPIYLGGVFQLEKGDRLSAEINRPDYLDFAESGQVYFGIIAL

[3] = tested on: Peripheral blood mononuclear cells (PBMC); assay: In vitro biocompatibility: stimulation assay of PBMC, cytokine mRNA; format: cell-based, LEW rat; conditions: IFN-γ, CXCL1, IL6, GMCSF mRNA levels
Description: In Vitro Biocompatibility Assay of SP Hydrogel by Stimulation Assay of Peripheral Blood Mononuclear Cells (PBMC). PBMC from a normal LEW rat were isolated using Histopaque (Sigma-Aldrich, St. Louis, Mo.). 1×10^6 Cells were incubated with either 0.5 μL phosphate buffered saline (PBS), 0.5 mg vicryl suture, 0.5 mg hydrogel, 0.5 mg VS-polymer, 0.5 mg Cys-polymer, or 5 μg of LPS for 20 hours at 37° C. Differences in Ct between the target and control (Actb) mRNA (ΔCt) were used to quantify the relative level for each sample's mRNA expression.
Ex vivo biocompatibility of soluble polymers and SP hydrogel: An SP hydrogel was formed by in situ crosslinking by mixing a cysteine-functionalized (Cys-polymer) and a vinyl sulfone-functionalized (VS-polymer) saccharide-peptide copolymer under mild conditions, according to protocols presented in Chawla et al., Biomacromolecules (2011) 12:560-567, and Chawla et al., Biomaterials (2012) 33:6052-6060, which are incorporated herein in their entirety. […] The mRNA expression of inflammatory cytokines released by PBMC, including TNF-α (killer cell), IFN-γ (T-cell activation), CXCL1 (IL-8 analog, recruiter), IL6 (killer cell), and GMCSF (antigen presentation) was assessed to detect any immune stimulatory effect.

## AYC(acm)RDGKIGPPKLDIRKEEKQI (AYC(Acm)RDGKIGPPKLDIRKEEKQI) [antagonizing peptide for IFN-γ; acm: acetamidomethyl]
IFN-γ
  antagonism of IFN-γ: potent antagonists

## Etanercept
TNF-α [1]
  TNF-α mediated PUMA mRNA up-regulation: abolished

## YCWSQYLCY (disulfide 2-8 (inferred)) [antagonizing peptide for TNF-α]
TNF-α [2]
  antagonism of TNF-α: potent antagonists

## lipopolysaccharide [LPS]
[3]
  stimulatory effect / mRNA response compared to LPS: highest stimulatory effect
